# Values of other authors, collected in PMC4026351.
# Like-named read-outs stand apart in the source and are kept apart here.
# How the values were obtained:
# [1] = target: BtuB (Escherichia coli) (UniProt P06129)
# [2] = target: BtuB (Escherichia coli) (UniProt P06129); remark: listed apart in the source
# UniProt P06129, sequence (P06129 21-614): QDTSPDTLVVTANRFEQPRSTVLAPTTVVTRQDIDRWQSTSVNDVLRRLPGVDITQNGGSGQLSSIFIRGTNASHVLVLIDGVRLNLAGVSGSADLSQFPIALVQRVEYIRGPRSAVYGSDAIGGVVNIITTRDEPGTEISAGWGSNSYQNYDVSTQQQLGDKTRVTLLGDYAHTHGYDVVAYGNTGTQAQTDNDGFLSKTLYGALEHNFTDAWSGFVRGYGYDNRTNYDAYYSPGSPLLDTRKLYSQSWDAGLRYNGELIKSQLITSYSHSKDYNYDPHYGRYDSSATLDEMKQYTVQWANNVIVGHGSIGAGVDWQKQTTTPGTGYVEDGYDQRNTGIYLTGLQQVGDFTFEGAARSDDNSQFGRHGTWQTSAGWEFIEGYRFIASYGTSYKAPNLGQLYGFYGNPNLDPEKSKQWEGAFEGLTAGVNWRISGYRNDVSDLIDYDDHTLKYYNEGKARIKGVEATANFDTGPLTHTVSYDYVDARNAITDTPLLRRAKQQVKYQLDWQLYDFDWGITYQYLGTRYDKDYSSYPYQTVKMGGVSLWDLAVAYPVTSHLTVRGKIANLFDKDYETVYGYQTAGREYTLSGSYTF
Substance,Kd [1] [nM],Kd [2] [nM]
colicin E3 R-domain (from UniProt P00646),1.5,–
colicin E2 R-domain (from UniProt P04419),–,1.5
